Where no end group is shown, it is not given here. [ ]: non-standard residue; d: D form. The star is where a group is joined. maleimido‑mono‑amide‑DOTA = O=C(O)CN1CCN(CC(=O)O)CCN(CC(=O)NCCN2C(=O)CC(*)C2=O)CCN(CC(=O)O)CC1
What was measured:
[1] = molecular target: mouse chemokine (C-C motif) receptor 2 (CCR2) (mouse) (UniProt P51683); test: cell-based or functional assay
[2] = molecular target: human CCR2 (hCCR2) (human) (UniProt P41597); test: autoradiography of ^64Cu-DOTA-ECL1i on human COPD lung tissue sections, co-incubation with 500-fold non-radioactive ECL1i
Chain of human CCR2 (hCCR2) (human) (P41597 whole entry): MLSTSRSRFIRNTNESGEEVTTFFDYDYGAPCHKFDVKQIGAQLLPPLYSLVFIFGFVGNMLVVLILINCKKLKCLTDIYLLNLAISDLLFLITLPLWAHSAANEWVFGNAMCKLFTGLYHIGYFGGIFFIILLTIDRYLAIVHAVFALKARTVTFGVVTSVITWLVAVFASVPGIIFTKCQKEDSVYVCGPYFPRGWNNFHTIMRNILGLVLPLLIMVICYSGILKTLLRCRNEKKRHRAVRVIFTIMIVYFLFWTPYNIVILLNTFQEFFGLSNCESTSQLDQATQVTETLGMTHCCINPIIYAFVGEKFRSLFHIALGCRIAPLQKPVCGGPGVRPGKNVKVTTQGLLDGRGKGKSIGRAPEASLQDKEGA

Chain of mouse chemokine (C-C motif) receptor 2 (CCR2) (mouse) (P51683 whole entry): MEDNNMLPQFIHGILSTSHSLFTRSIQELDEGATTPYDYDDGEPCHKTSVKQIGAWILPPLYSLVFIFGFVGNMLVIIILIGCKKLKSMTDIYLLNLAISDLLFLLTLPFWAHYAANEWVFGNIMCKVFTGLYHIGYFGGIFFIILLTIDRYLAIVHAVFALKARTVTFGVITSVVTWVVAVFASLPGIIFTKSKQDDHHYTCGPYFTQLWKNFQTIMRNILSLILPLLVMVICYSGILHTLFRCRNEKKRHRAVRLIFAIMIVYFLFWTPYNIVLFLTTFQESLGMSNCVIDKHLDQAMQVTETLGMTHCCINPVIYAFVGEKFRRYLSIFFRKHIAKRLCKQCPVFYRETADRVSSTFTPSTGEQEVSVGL

Binder	graft/native lung uptake ratio, PET 1 hour after transplantation, wild type B6 lung into wild type B6 recipient [1]	graft/native lung uptake ratio, PET at 1 hour with co-injected non-radiolabeled ECL1i [1]	graft/native lung uptake ratio, PET at 4 hours, wild type into wild type [1]	graft/native lung uptake ratio, PET at 24 hours, wild type into wild type [1]	lung PET uptake 24 h after intratracheal LPS [1]	lung PET uptake 24 h after intratracheal PBS [1]	lung PET uptake 48 h post-LPS [1]	lung PET uptake 144 h post-LPS [1]	lung PET uptake after low dose LPS [1]	lung PET uptake in LPS-treated mice co-injected with excess non-radioactive ECL1i (blocked) [1]	lung PET uptake in naive mice [1]	percent of PET signal in grafts blocked by competitive receptor blocking, wild type recipients [1]	percent of autoradiography signal blocked [2]
[dL]G[dT][dF][dL][dK][dC](maleimido‑mono‑amide‑DOTA) (also: DOTA chelates 64Cu) [^64Cu-DOTA-ECL1i]	3.71	1.17	4.13	3.73	4.43 % ID/g	0.99 % ID/g	1.04 % ID/g	1.29 % ID/g	1.82 % ID/g	0.63 % ID/g	0.39 % ID/g	75%	
[dL]G[dT][dF][dL][dK][dC] [ECL1i peptide d(LGTFLKC)]													54.5%
